Experimental data as given in publication PMC2652392, “The Structural Basis of Gas-Responsive Transcription by the Human Nuclear Hormone Receptor REV-ERBβ” (PLoS Biology, 2009).
No end group written: not given here.

Legend:
[1] = biological target: T1, REV-ERBα ligand-binding domain (residues 274–614 with an internal deletion of residues 324–422) (human, UniProt P20393 274-614, internal deletion of residues 324–422); assay: FP; heme-bound, control
T1 sequence: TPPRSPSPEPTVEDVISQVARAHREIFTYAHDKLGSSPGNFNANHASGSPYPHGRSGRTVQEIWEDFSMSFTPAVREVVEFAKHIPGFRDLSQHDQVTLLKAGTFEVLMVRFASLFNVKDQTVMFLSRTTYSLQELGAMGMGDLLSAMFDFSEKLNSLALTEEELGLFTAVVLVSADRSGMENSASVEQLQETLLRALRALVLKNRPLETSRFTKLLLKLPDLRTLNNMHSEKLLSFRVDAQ

[2] = biological target: T2, REV-ERBβ ligand-binding domain (human, UniProt Q14995 212-579); assay: FP; heme-bound, control
T2 chain: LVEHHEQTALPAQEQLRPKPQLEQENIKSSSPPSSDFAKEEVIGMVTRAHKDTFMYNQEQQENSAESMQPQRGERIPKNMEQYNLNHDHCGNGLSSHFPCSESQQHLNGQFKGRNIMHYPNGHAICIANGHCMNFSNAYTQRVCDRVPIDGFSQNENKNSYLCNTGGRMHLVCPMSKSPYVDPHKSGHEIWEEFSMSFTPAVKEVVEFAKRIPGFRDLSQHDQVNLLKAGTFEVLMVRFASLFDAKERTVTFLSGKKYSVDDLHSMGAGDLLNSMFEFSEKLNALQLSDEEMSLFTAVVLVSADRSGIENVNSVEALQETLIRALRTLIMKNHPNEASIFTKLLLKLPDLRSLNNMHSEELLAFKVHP

[3] = biological target: T1, REV-ERBα ligand-binding domain …; assay: FP; no heme, + SNAP (NO donor)
[4] = biological target: T2, REV-ERBβ ligand-binding domain; assay: FP; no heme, + SNAP (NO donor)
[5] = biological target: T1, REV-ERBα ligand-binding domain …; assay: FP; heme-bound, + SNAP (NO donor)
[6] = biological target: T2, REV-ERBβ ligand-binding domain; assay: FP; heme-bound, + SNAP (NO donor)
[7] = biological target: T1, REV-ERBα ligand-binding domain …; assay: FP; no heme, control
[8] = biological target: T2, REV-ERBβ ligand-binding domain; assay: FP; no heme, control
[9] = biological target: T3, REV-ERBα ligand-binding domain (residues 274–614 with an internal deletion of residues 324–422) (human, UniProt P20393 274-614, internal deletion of residues 324–422); assay: fluorescence polarisation; 110 nM N-terminally fluorescein-labelled NCOR peptide with a dilution series of LBD; 100 mM Tris pH 8.2, 150 mM NaCl; apo or heme-bound LBD, with or without the NO donor SNAP (1,200 μM); 384-well plates; conditions: both partners purified
T3 construct: REV-ERBα, human, GenBank CAB53540, residues 274–614 with an internal deletion of residues 324–422; heme is a non-covalent ligand; Modified pET28a vector; also called REV-ERBα LBD; source: E. coli BL21-Gold(DE3) pLysS, with or without hemin in the medium, purified (Ni-NTA)
T3 sequence (looked up): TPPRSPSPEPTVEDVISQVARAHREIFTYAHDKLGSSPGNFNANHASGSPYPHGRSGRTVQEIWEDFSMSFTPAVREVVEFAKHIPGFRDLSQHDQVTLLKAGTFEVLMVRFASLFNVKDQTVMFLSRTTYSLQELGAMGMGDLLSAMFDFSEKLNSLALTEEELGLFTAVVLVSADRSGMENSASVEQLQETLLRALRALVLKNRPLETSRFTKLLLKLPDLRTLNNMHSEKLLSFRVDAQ

- Kd [1]: 51.1 µM
- Kd [2]: 193 µM
- Kd [3]: 3.7 µM
- Kd [4]: 20.4 µM
- Kd [5]: 2.9 µM
- Kd [6]: 99.7 µM
- Kd [7]: 4.1 µM
- Kd [8]: 16.8 µM
- binding result [9]: binds
B1: NCOR interaction domain I (IDI) peptide (peptide)
peptide: fluorescein-DPASNLGLEDIIRKALMGSF
notes: also called NCOR peptide; Nuclear Receptor Co-repressor peptide
